Measured values reported in the DeepSol protein solubility set.

Assay: soluble on expression in E. coli; label from the status in PepcDB or PDB records

For “MSLSLLVIGSLAFDDIETPFGRSDNTLGGSSTYIALSASYFTDEPIRMVGVVGSDFGKEHFDLLHAKNIDTRGIQVIEDGKTFRWAGRYHYDMNTRDTLDTQLNVFAEFDPHVPQYYRDSKFVCLGNIDPELQLKVLDQIDDPKLVVCDTMNFWIEGKPEELKKVLARVDVFIVNDSEARLLSGDPNLVKTARIIREMGPKTLIIKKGEHGALLFTDNGIFAAPAFPLESIYDPTGAGDTFAGGFIGHLARCGNTSEAEMRKAVLYGSAMASFCVEQFGPYRYNDLDLLEVDDRYQSFLELSRIEEGHHHHHH”, the “soluble on expression in E. coli” value was “soluble”.
For “MRVLFIGDVFGQPGRRVLQNHLPTIRPQFDFVIVNMENSAGGFGMHRDAARGALEAGAGCLTLGNHAWHHKDIYPMLSEDTYPIVRPLNYADPGTPGVGWRTFDVNGEKLTVVNLLGRVFMEAVDNPFRTMDALLERDDLGTVFVDFHAEATSEKEAMGWHLAGRVAAVIGTHTHVPTADTRILKGGTAYQTDAGFTGPHDSIIGSAIEGPLQRFLTERPHRYGVAEGRAELNGVALHFEGGKATAAERYRFIED”, the “soluble on expression in E. coli” value was “soluble”.
In the case of “MAKTIFYFSYRKTEELHAKAKELKKITTDYGYELTDDYQKANVIISIGGDGAFLKSVRETGFRQDCLYAGIALTEQLGQYCDFHINQLDEIIKAAIEDRWLVRRYPTIYGTVNNTKAFYVLNEFNIRSSIIRTLTMDLYINDSHFETFRGDGMVISTPTGSTAYNKSVNGSIVDPLLPSMQVSELASINNNKFRTLGSSFILSPKRKLRIEIASEEGNNEFPMIGMDSEALSIQHVHEVNLEVGDRFINIIKLPKNSFWDKVKRNFLLEHHHHHH”, the “soluble on expression in E. coli” value is reported as “soluble”.
For “MGSDKIHHHHHHMEELIQKALSSSNKVSSNSLIEKIIPVGGGCIHKAWSIHFQNGKRVFAKSNYIDNINMFKFERECLSVLKRFANESYICVPETLDLISYQNISILFLEWIDLKQCQQNVLGKGLALLHKSSSEWSKKNFGWEEEGFIGSSTQARGWKSNWGEFFVNYRLRPQLLQAKAWGVRVEDYEDVLIYLSSYLNDHQPKTSLVHGDLWSGNCGSTKNGLGSLYDPACYWADREVDISMTKLFGGFNREFYKGYEEIWPLNKFSKDRNDIYNLYHLLNHANIFGGSYKENSLKILKDLRSRV”, the “soluble on expression in E. coli” value was “not soluble”.
In the case of “MGSDKIHHHHHHMVVLAPHIEWLMETVHIISGLNDGGAEAVLYRLCSSDKAAEHYVISLMDEGKYGALLREAGVQVSCLSMPRGRVTLGGLWRLWRLLRQIRPQAVQTWMYHADLVGGLIARLAGVKQVFWGIHHTTLHAGQSRRSTIWVARLCARISSCLPSAIICCAQKALEAHRELGYAAEKLRVIPNGYDLVRFRVDEDARVRLRTEWNTGSRWLIGMVGRFDPLKDHKNLLDALAIVKYRGVDFCCVLAGRGLDQNNAQLMAWLTELDLAGEVKLLGQRMDIPDVMNALDVHVLSSSSEAFPNVVAEAMACGTSVVTTNVGDAALIVGETGWVVPARNPGMLADALLQAYVAMHDEAAWQVRCTAVRQRVEDHFSLERMVENYHLVWQNKL”, the “soluble on expression in E. coli” value is reported as “not soluble”.
With “MLSVSPLLQSPSSASMRFLSLDAYGRVLDWISWQDAACLYVRNAVSWTLGDPCLSIHGGISRLTGKRSVIALHPIIASRGHARTYVPVPTPALTNQALFARDDHLCLYCGQQFSRFQLTRDHVIPISKGGLDTWENVVTACFHCNSLKANRTPQQAGMRLLAVPYRPSWIEHLILSNRNILADQMAFLKAQLPKRSKLSRNLEHHHHHH” the “soluble on expression in E. coli” value was “not soluble”.
With “MSAIENFDAHTPMMQQYLRLKAQHPEILLFYRMGDFYALFYDDAKRASQLLDISLTKRGASAGEPIPMAGIPYHAVENYLAKLVNQGESVAICEQIGDPATSKGPVERKVVRIVTPGTISDEALLQERQDNLLAAIWQDSKGFGYATLDISSGRFRLSEPADRETMAAELQRTNPAELLYAEDFAEMSLIEGRRGLRRRPLWEFEIDTARQQLNLQFGTRDLVGFGVENAPRGLCAAGCLLQYAKDTQRTTLPHIRSITMEREQDSIIMDAATRRNLEITQNLAGGAENTLASVLDCTVTPMGSRMLKRWLHMPVRDTRVLLERQQTIGALQDFTAGLQPVLRQVGDLERILARLALRTARPRDLARMRHAFQQLPELRAQLETVDSAPVQALREKMGEFAELRDLLERAIIDTPPVLVRDGGVIASGYNEELDEWRALADGATDYLERLEVRERERTGLDTLKVGFNAVHGYYIQISRGQSHLAPINYMRRQTLKNAERYIIPELKEYEDKVLTSKGKALALEKQLYEELFDLLLPHLEALQQSASALAELDVLVNLAERAYTLNYTCPTFIDKPGIRITEGRHPVVEQVLNEPFIANPLNLSPQRRMLIITGPNMGGKSTYMRQTALIALMAYIGSYVPAQKVEIGPIDRIFTRVGAADDLASGRSTFMVEMTETANILHNATEYSLVLMDEIGRGTSTYDGLSLAWACAENLANKIKALTLFATHYFELTQLPEKMEGVANVHLDALEHGDTIAFMHSVQDGAASKSYGLAVAALAGVPKEVIKRARQKLRELESIS” the “soluble on expression in E. coli” value was “soluble”.
For “MSLDGSVAAAGLGLGLPTTDSRGHYQLLLSGRALADRYRRIYTTALSDRDQAGSSTGHPASRNKKILNKKKLKRKQKSKSKVKTRSKSENVENTVIIPDIKLHSNPSAFNIYCNVRHCVLEWQKKETSLAAASKNSVQSGESDSDEEEESREPPIKLPKIIEVGLCEVFELIKETRFSHPSLCLRSLQALLNVLQGQQPEGLQSEPPEVLESLFQLLLEITVRSTGMNDSTGQSLTALSCACLFSLVASWGETGRTLQAISAILTNNGSHACQTIQVPTILNSLQRSVQAVLVGKIQVQDWFSNGIKKAALMHKWPLKEVSVDEDDQCLLQNDGFFLYLLCKDGLYKIGSGYSGTVRGHIYNSTSRIRNRKEKKSWLGYAQGYLLYRDLNNHSMTAIRISPETLEQDGTVLLPDCHTEGQNILFTDGEYINQIAASRDDGFVVRIFATSTEPVLQQELQLKLARKCLHACGISLFDLEKDLHIISTGFDEESAILGAGREFALMKTANGKIYYTGKYQSLGIKQGGPSAGKWVELPITKSPKIVHFSVGHDGSHALLVAEDGSVFFTGSASKGEDGESTKSRRQSKPYKPKKIIKMEGKIVVYTACNNGSSSVISKDGELYMFGKDAIYSDSSSLVSDLKGHFVTQVAMGKAHTCVLMKNGEVWTFGVNNKGQCGRDTGAMNQGGKGFGVENMATAMDEDLEEELDEKDEGHHHHHH”, the “soluble on expression in E. coli” value was “not soluble”.
With “MAHHHHHHMRHCHMSFAYCFCPFSAHRSASSQGYTRLMRRLSGSTCLLTGVTRAGRWLPTTAPCLSLCSFFLTASRRKQSTSGIGGDVRDIEETHPDFQPRLVSADLAEDEIAMVKKDIDDTIKSEDVVTFIKGLPEAPMCAYSKRMIDVLEALGLEYTSFDVLAHPVVRSYVKEVSEWPTIPQLFIKAEFVGGLDIVTKMLESGDLKKMLRDKGITCRDL” the “soluble on expression in E. coli” value was “not soluble”.
For “MGSRIMHVIIANGIAEKLSIHDKTSFLLGAVAPDAVHSKKEKGTSHFYAGTTKNYTRRIDYDSFFHKYESHINSPFILGYYTHLIADDNWLSGFFLPWLKNRIENDETIAPLYYNDFKLLNAKLLHHYDQEQQLFSLLNQEAHIVDIEEVSKENVLAFRKYLFEDMLYPKQYLHEDLQVFTFDQIVGYIETAIEKGVFFIKQLSNEKSTSKI”, the “soluble on expression in E. coli” value was “not soluble”.
In the case of “MTVGYGFSASGDYSQSKIRADHASVTEQSGIYAGEDGYQIKVRDNTDLKGGIITSSQSAEDKGKNLFQTATLTHSDIQNHSRYEGKSFGIGGSFDLNGGWDGTVTDKQGRPTDRISLAAGYGSDSDSQSSITKSGINTRNIHITDEAGQLARTGRTAKETEARIYTGIDTETADQHSGRLKNSFDKDAVAKEINLQREVTKEFGRNATQAVAAVADKLGNTQSYERYQEARTLLEAELQNTDSEAEKAAFRASLGQVNAYLAENQSRYDTWKEGGIGRSILHGAGRQSAMRRAGMSVRRQ”, the “soluble on expression in E. coli” value is reported as “not soluble”.
For “MRSAFRVIRTVREKHACTQCDAIVQAPAPSRPIERGIAGPGLLARVLTSKYAEHTPLYRQSEIYGRQGVELSRSLLSGWVDACCRQLSPLEEALHGYVLTDGKLHADDTPVPVLLPGNKKTKTGRLWTYVRDDRNAGSTLAPAVWFAYSPDRKGIHPQTHLAGFSGVLQADAYAGFNELYRDGRITEAACWAHARRKIHDVHVRTPSALTEEALKRIGELYAIEAEIRGMTAEQRLAERQLKTKPLLKSLESWLREKMKTLSRHSELAKAFAYALNQWPALTYYADDGWAEADNNIAENALRMVSLGRKNYLFFGSDHGGERGALLYSLIGTCKLNGVEPESYLRYVLDVIADWPINRVGELLPWRVALPTE”, the “soluble on expression in E. coli” value was “not soluble”.
In the case of “MQRARCYLIGETAVVLELEPPVTLASQKRIWRLAQRLVDMPNVVEAIPGMNNITVILRNPESLALDAIERLQRWWEESEALEPESRFIEIPVVYGGAGGPDLAVVAAHCGLSEKQVVELHSSVEYVVWFLGFQPGFPYLGSLPEQLHTPRRAEPRLLVPAGSVGIGGPQTGVYPLATPGGWQLIGHTSLSLFDPARDEPILLRPGDSVRFVPQKEGVC”, the “soluble on expression in E. coli” value is reported as “soluble”.
With “MDWFGVDAGTLREGDRADFVVIDPNCLNSDVDAYHEETVPFYGGLSRMVNRNDDAVVATAVNGTVVFGKGEFRDGYGLEHHHHHH” the “soluble on expression in E. coli” value was “not soluble”.
In the case of “ATFSKLLYRHRQFYTQFPWVEDKIREVCHHLDVSEELLPTGERLSSRRLRTIGIDLGRSSGFYSLAYLFEDPFVNIHGEKRLRPDFLVDVGQRVSFAGAPLYAAIHESIYGGIGGTTTNWSAHRIREEFPGCEENADPRSAEPFYLTGEHIFPWQFDEDPALQPYKAAAEQLATTQWEHSPYDAEVLKEQAAVTAACVYLDDAFVPFELSMDTAHTYRDLRLHVTNRFQHDGIRWDGAGILSTLRDKVLDH”, the “soluble on expression in E. coli” value is reported as “not soluble”.
For “MGSDKIHHHHHHMESYKGNKTTRKQIVSSIQMDIIKNRKIGEKLPSESEYANLFGTARSTVQKALRDLETMQLIEKVQGKGSFVIFKHPKIEMFNFRGFSEYAHQIGATPITKLIKKKKIDNGHKMLLKRLRSIKINDEIAPLTFDESILSLDDFPGLDQYNFEKGSLYDVLRNKYNTYPAIANLEVIPVAPEEEISNLLRVSKGNPLLKVNGFVYDSNSEIMEKVGIIYSDQARFKFTLGI”, the “soluble on expression in E. coli” value was “not soluble”.
With “MSLNILIIAFEGIEGSGKTSHLEATKKYLEKEGYGVVTFGLQMSKLIGDRIAQVKRNIIFERRTLFLAYVTDLADQIENYVKPSIDSGFIALADGYTLTLTSWGLTRGLEKEWIDDVLSMLPKPSISLPLISTPDEIVRRIIKKRGYLDPLETGIDICIKEDTFEAYIDYINRFQEALMSISSRENIIYTDKEFDEVQKEIVRRIDNITEGHHHHHH” the “soluble on expression in E. coli” value was “soluble”.
In the case of “MGSDKIHHHHHHMYKINIIRSDSVYKNILKAPINDRDSIFTKEILVPFKKKFEVQHMPIYNDDKQTMSAIQFLDAFQISPKDLRMSDQMSIQYLNNDFWSNCEKYLKVAIDQFSNYSISSQVSNYHFTVLLGDSQKPLMYLNKNRGGDGGIPGYIMIYLVPSTSTINSMKSLIAHEVNHNMRYQYIDWDGGSLIELIIAEGLAENYVESLYGKAHIGPWVTNTNWSRDNVKIKNTIYNHLHLKHIFESMPYLYGDDINKLQGRPIVGLSHAAGYACGYHLVKYFLQKTNIPIEVATTLPAQKIINEVTEFWHTHTL”, the “soluble on expression in E. coli” value is reported as “not soluble”.
For “MSGREFLQKLLDGERVEWKALGEIIQLEKGRQLNKDLLSSSGRYPAYNGGMSYSGFTDSYNYSENKTIISQGGASAGFVNFVTTKFYANAHCYVVLPDTEVVDNRYIYHFLKLNEERLTSCQHGAGIPALRASEITSLKIPIPCPDNPKKSLAIQAEIVRILDAFTELTAELTAELTARKKQYAYYRDRLLTFTTPPYGHPSKGGELFSLFGHPSEGGELFTPYGHSVEERELNSPSLKGWQAQPDGVVPVEWKTLGEVGHFIRGSGIQKSDFKASGVGCIHYGQIHTHYGTWTTETKSFIDPEFANRLKKAKPGDLVIATTSEDDDAVAKAVAWIGTEDVAVSTDAYIFRHTANPKYMSYFFQTDMFQEQKKPYITGTKVRRISGDNLAKILIPIPPLAEQERIVAILDQFDALTNSLTEGLPREIELRQKQYAYYRDLLFSFPKASFGGVPEGRDQFPSFGGVPEGRGGLNALEHHHHHH”, the “soluble on expression in E. coli” value was “not soluble”.
